This passage reports Kd results from US20240109945A1 (published 2024).

The chains are these.
T1: biotinylated N-glycopeptide A3Man (AVSHN(M3N2)ASLE) (also: biotinylated, position not given here)
T1 peptide: AVSHN(M3N2)ASLE

B1: Variant Fbs1-7 (designed binder)
chain: MGSSHHHHHHHHSSGENLYFQSHMASQQEGLVPEGSADEERDHWQQFYFLSKRRRNLLRNPCGEEDLEGWSDVEHGGDGWRVERLPGDGGVEFTQDDSVKKYFASSYRWCRKAQVIDLQAEGYWEELLDTTQPAIVVKDWYSGRTDAGSLYELTVRLLSENEDVLAEFATGQVAVPEDGSWMEISHTFIDYGPGVRFVRFEHGGQDSVYWKGWFGARVTNSSVWVEP
B2: Variant Fbs1-2 (designed binder)
chain: B1 chain with R84E, G89N
B3: Variant Fbs1-8 (designed binder)
chain: B1 chain with E83R
B4: Variant Fbs1-1 (designed binder)
chain: B1 chain with R84E, G89N, Y107F, R108E
B5: Variant Fbs1-3 (designed binder)
chain: B1 chain with R84E
B6: Variant Fbs1-6 (designed binder)
chain: B1 chain with E83R, R84E
B7: Fbs1-1 (WT) (designed binder)
chain: B1 chain with R84E, G89N, Y107F, R108E
B8: Fbs1-7 (E154R.N159G.F177Y.E178R) (designed binder)
chain: B1 chain
B9: Fbs1-6 (E153R.N159G.F177Y.E178R) (designed binder)
chain: B1 chain with E83R, R84E
B10: Fbs1-8 (E153R.E154R.N159G.F177Y.E178R) (designed binder)
chain: B1 chain with E83R
B11: Fbs1-2 (F177Y.E178R) (designed binder)
chain: B1 chain with R84E, G89N
B12: Fbs1-3 (N159G.F177Y.E178R) (designed binder)
chain: B1 chain with R84E

Where a chain is given by its changes, count along the chain named. Names and notes keep the numbering of the source. No end group written: not given here. M3N2 = N-glycan

For one assay, the target named is T1, biotinylated N-glycopeptide A3Man …. Description: BLI.
With B1, the affinity, expressed as Kd, was 0.86 µM.

As for B2, the affinity, expressed as Kd, was 0.61 µM.

B3: the Kd is 1.14 µM.

On to B4, for which the dissociation constant Kd came to 4.3 µM.

B5: the affinity, expressed as Kd, was 0.88 µM.

Turning to B6, the dissociation constant (Kd) worked out at 0.2 µM.

The next assay addresses G2PB. The experiment in a line: BLI.
For the molecule B7, the Kd is 27.5 µM.

B8 returned a Kd of 1.45 µM.

In turn, B9 registered a dissociation constant Kd of 0.79 µM.

Consider B10, for which the Kd stood at 1.19 µM.

On to B11, for which binding was put at a Kd of 26.8 µM.

B12 displayed an equilibrium dissociation constant (Kd) of 0.54 µM.
